Results as given in publication PMC7954794, “Protein context shapes the specificity of SH3 domain-mediated interactions in vivo” (Nature Communications, 2021).

B1: YML035C (protein, UniProt P15274 1-810, looked up)
AMP deaminase: MDNQATQRLNDLSLEPAPSHDEQDGSGLVIDIDQRKIGDEQAGVVVDDETPPLEQQDSHESLAADSRNANFSYHENQQLLENGTKQLALDEHDSHSAILEQPSHSTNCSSSNIAAMNKGHDSADHASQNSGGKPRTLSASAQHILPETLKSFAGAPVVNKQVRTSASYKMGMLADDASQQFLDDPSSELIDLYSKVAECRNLRAKYQTISVQNDDQNPKNKPGWVVYPPPPKPSYNSDTKTVVPVTNKPDAEVFDFTKCEIPGEDPDWEFTLNDDDSYVVHRSGKTDELIAQIPTLRDYYLDLEKMISISSDGPAKSFAYRRLQYLEARWNLYYLLNEYQETSVSKRNPHRDFYNVRKVDTHVHHSACMNQKHLLRFIKHKLRHSKDEKVIFRDGKLLTLDEVFRSLHLTGYDLSIDTLDMHAHKDTFHRFDKFNLKYNPIGESRLREIFLKTNNYIKGTYLADITKQVIFDLENSKYQNCEYRISVYGRSLDEWDKLASWVIDNKVISHNVRWLVQIPRLYDIYKKTGIVQSFQDICKNLFQPLFEVTKNPQSHPKLHVFLQRVIGFDSVDDESKVDRRFHRKYPKPSLWEAPQNPPYSYYLYYLYSNVASLNQWRAKRGFNTLVLRPHCGEAGDPEHLVSAYLLAHGISHGILLRKVPFVQYLYYLDQVGIAMSPLSNNALFLTYDKNPFPRYFKRGLNVSLSTDDPLQFSYTREPLIEEYSVAAQIYKLSNVDMCELARNSVLQSGWEAQIKKHWIGKDFDKSGVEGNDVVRTNVPDIRINYRYDTLSTELELVNHFANFKRTIEEK
B2: YNL084C (protein, UniProt P39013 1-349, looked up)
Actin cytoskeleton-regulatory …: MPKLEQFEIKKYWQIFSGLKPIENKVNHDQVLPILYNSKLDSSVLNKIWFLADIDDDDNLDFEEFVICMRLIFDMVNKNISSVPDELPDWLIPGSKVNLIKERKKRKQIENADLPPKKEIKVDWYMSPDDLNQYEKIYNSCAKLTDGTITFNELSTKLSTKFFNISKTDLNKVWSLINPQNLPSIDRDPTFYFIHCLRQRNDLGAEIPASLPNSLAEVCNKKQLSYDLRSSQPPTKRKEEANEVDNLRDNGQNSSSDSSGSNVLSNEDSIKQKYASLTDDQVANMREQLEGLLNYKKSEKTQGGSKLSKRINIRSITDDLDNIEQQVEVLENYLNNKRHELQALQAEIN

What was measured:
[1] = test system: 575 putative partners (preys) of 22 WT SH3-containing proteins; test: DHFR-PCA on solid medium, WT and SH3-deleted baits (Fig. 1B); format: cell-based, Saccharomyces cerevisiae; set-up: key to Score: 0: SH3-independent; 1: SH3-dependent PPIs; 2: SH3-inhibited PPIs; conditions: for medrep (log2 median colony size normalized to plate background, PCA score): label = prey
Source text: To assess the requirement of SH3 domains for PPIs in vivo, we first measured binary interactions between 22 WT SH3-containing proteins (Supplementary Fig. 1A) as baits and 575 putative partners from their interconnected signaling networks using the dihydrofolate reductase protein–fragment complementation assay (DHFR-PCA) in the budding yeast Saccharomyces cerevisiae. About 33% (202/607) of the PPIs detected were described before, mostly by direct methods (Supplementary Fig. 1B, C)[11]. We repeated the experiments with baits in which the SH3s were individually replaced with a flexible linker by genome editing (SH3 domain deletion/stuffing, Fig. 1A). The stuffer DNA sequence ([…]) codes for a small flexible poly-Gly with Ser peptide ([…]) that is inspired by previous experiments[12],[13]. About a third of the SH3-containing protein interactome is qualitatively or quantitatively SH3-dependent (171 PPIs out of 607, Fig. 1B and Supplementary Fig. 1B, C). We validated the vast majority of the quantitative changes in low-throughput experiments and excluded that this is simply due to changes in protein abundance in most cases (Supplementary Fig. 1D–G). SH3-binding motifs[14] are more frequent in the SH3-dependent PPI partners when compared to sequences from random proteins, SH3-independent PPI partners or PPI partners that are stronger or gained following SH3 deletions (p values = 1.5 × 10^−17, 0.0038 and 2.1 × 10^−08, respectively; Mann–Whitney test, one-tailed, Fig. 1C). The changes we measure are therefore enriched for PPIs that depend on the direct interactions of the domains with the PPI partners.
The complete list of strains, primers, and gRNAs used in this study can be found in Supplementary Tables 1–3. All constructed yeast strains were validated by polymerase chain reaction (PCR) and confirmed by Sanger sequencing of the locus of interest. Bait strains for the DHFR-PCA experiments were constructed as follows. The genes of interest were fused at their genomic 3′ end by replacing the stop codon with a linker ([…]), the DHFR F[1,2] followed by a smaller linker (GGGGS), a 1× FLAG tag ([…]) and the NATMX4 resistance cassette via homologous recombination (all amplified from pAG25-DHFR[1,2]-linker-FLAG). The set of 615 prey strains (DHFR F[3] fusions in the BY4742 background) were retrieved from the Yeast Protein Interactome Collection[43] with the exception of 73 that were reconstructed (Supplementary Tables 1 and 2). Knockout strains were taken from the yeast knockout collection except for ABP1, BEM1, BZZ1, and SLA1, which were reconstructed by replacing the ORFs with the NATMX4 resistance cassette by homologous recombination in the BY4741 background.
Yeast SH3 domain genomic sequences were replaced by CRISPR–Cas9 genome editing. Each SH3 domain (as defined by the SMART database V8.0 except for Ysc84 SH3 (as defined by PROSITE), see Source Data for all SH3 sequences and Supplementary Table 1 for primers used) was specifically targeted by one gRNA[46]. Yeast competent cells were co-transformed with a pCAS plasmid (Addgene plasmid 60847[47]) expressing both the gRNA of interest and Streptococcus pyogenes Cas9[46] and a donor DNA sequence (stuffer) with 60 bp homology arms surrounding the SH3 DNA sequence. The Stuffer DNA was either PCR amplified or digested from a plasmid. The stuffer DNA sequence ([…]) codes for a small flexible linker ([…]) inspired by protein linkers used in structural biology[12],[13]. This type of linker is frequently used for fusing proteins without affecting the structure of the linked proteins.
The overall DHFR-PCA pipeline is based on Tarassov et al.[43] and the procedures have also been published as a visualized protocol. The screens were performed with robotically manipulated pin tools (BM5-SC1, S&P Robotics Inc.). First, the preys were cherry-picked from 96-well plates to omnitrays in a 384 format on YPD + HPH solid media. […]

ABP1 = test: DHFR-PCA on solid medium, bait ABP1 (Fig. 1B); format: cell-based, Saccharomyces cerevisiae; conditions: bait ABP1, label = prey; 2-4 replicates
Source text: Supplement 41467_2021_21873_MOESM8_ESM.xlsx, sheet "Fig1B" | column: medsize; medrep; Ratio; Score

[2] = bait SLA1-3, DHFR-PCA, Replicates 4 (2 for YCR009C, YDR388W, YIL033C)

| Molecule | medrep (log2 median colony size normalized to plate background, PCA score) ([1]; bait SLA1-2, DHFR-PCA, Replicates 4 (2 for YCR009C, YDR388W)) | Score ([1]; bait SLA1-2, label = prey) | Ratio (SH3-deleted/WT medrep) ([1]; bait SLA1-2, label = prey, only significant differences shown, PPIs completely lost have a ratio of 0.1, gained PPIs 2.5) | medrep (log2 median colony size normalized to plate background, PCA score) [1, 2] | Score ([1]; bait SLA1-3, label = prey) | medrep (log2 median colony size normalized to plate background, PCA score) (ABP1) |
| --- | --- | --- | --- | --- | --- | --- |
| B1 | 2.073 | 1 | 0.1 | 2.073 | 0 | 3.81 |
| B2 |  |  |  | 4.605 | 0 | 4.13 |
